From publication PMC9722767

The sequences below were run on T1, MsmR1 (Paenibacillus polymyxa SC2-M1 (SC2 derivative)), ORF:0fff1571 (assay: EMSA). Settings: Chemiluminescent EMSA kit (Beyotime); labeled probe about 0.4 uM, competitor about 4 uM, protein gradient; buffer, salt, pH and temperature not stated.
T1 sequence: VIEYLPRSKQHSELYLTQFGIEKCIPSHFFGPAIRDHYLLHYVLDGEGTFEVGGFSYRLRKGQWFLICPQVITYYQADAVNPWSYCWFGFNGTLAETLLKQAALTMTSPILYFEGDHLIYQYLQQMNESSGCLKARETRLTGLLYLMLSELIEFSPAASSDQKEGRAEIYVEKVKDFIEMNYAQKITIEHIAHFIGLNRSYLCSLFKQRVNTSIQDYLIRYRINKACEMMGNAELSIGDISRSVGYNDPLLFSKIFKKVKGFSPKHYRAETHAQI

binding, binds:
ACCATTTCCCGGGCAATCGGCTGCCGGGTGCGAATGGAATCGCCCAAGTCCCCTCGTGCCAGTTCACTTAGATAGGTCCCATATTGCTGTAGCCACGGCTTATCCAGCCCTAATTGCTCACGCAGCGCCTGTTTGGACTGTTCCGTGGCCTTGTCCCCGAGTATCGTTTCTGCCGGATCACCGGGAATAGCATGAATAATCGAAAACACGATAAGCGTCATCCCCA (double strand) [oppC3 upstream fragment], ATATGATTTCTGTAGAACCTACTGCTATATTGTTGGATCTTATCAAGCTTTACACCATATGAACTTAGTTGACGCCTGCTACATAAAGATTCTTCTAAGTGCCTTTTTGGTGTGGATCTCTGATGATTATTATCTAAGAGAGGGGTTATTTTTCCCAA (double strand) [msmR1 promoter], CAGAGGAAATGCATGTCCGTATTATCGGAGACAACACGATTTCCCGCAAAAATCATGCGGTCATTGTGTATGATCCGAAGAAACGCAACTTTTACTTGCTGCCAGGCGATTCGTCAGGCTTGGCGTATCACAATAACGAGGCGGTATATTCACCAGTGGAGCTGGCTGCTTATGACGTGATTCAGCTCGGGCGCAGCAAATTTATCTTTATTCCGCTGTGCGGCGCTCATTTCGAGTGGGA (double strand) [pppL upstream fragment], CAGCAACGCACCTCAAGAGATTGCAGGTGTGAAGGTAGACAAAGTACTGGACTACTCGCAAGGCTTGGACGGACTTCCGCAGGAAAACGTACTCAAGTTTTTATTGGAGGACGGTTCTTGGTTCTGCCTGCGTCCTTCGGGCACAGAGCCTAAAATCAAAGTATACTTTGCAGTACGTGGTTCCTC (double strand) [PPSC2_23180 upstream fragment], CCGATTCATCTCATTTACGCATGGATATGTTGAGAAAAAGGAAATGCTCATAGCTAGAAAACTTTATACAATGAAAGAGAAATAAGCACTGTGAAATTCGACTTTTGATCATGGATTTCATATAATGTGAATTGCTTAAATTAGAGATTTAAC (double strand) [sucA upstream fragment], CGGAACAAATGGATCTTCGCAAAGAATACCTTCAAATCTTTCGAGGCTCTATCAAAAGCATACTTTTGAATGCTACGATTTATGATCCGAATGGAGATGATGTTACTCCTGAAAAATTAAGAAAAGAACAGGCTCAAATCGTTAAGCCATGAATTTAATTTTGTCT (double strand) [ydfp upstream fragment], GGACGAATCGCACATGAGGCTTTCCCCAACAAACGTGACAGTTTTAGAGCCTTGGGCAATTATGTAAAGAGAGGGCATGTTGAGGGTATGCGTCGGTTTCGACTCCGCGGATGCGCGCCTGAAACAAAGCTCTGGAATCGCTGTTTGGTGTAAACCATCCTTAGGCGTATGCCGTGCTATTTGCTTAGCTAACTCCGTAATGAGTTGGTTCAAACTTGTTCACCAATCCTTTTTCATTTAATCTGATATGAATATTGTAATTCAAACCGGACAGGAATAGGCAAGGAACGCGTATGAAT (double strand) [sdr3 upstream fragment], TGATCTGGTAACACCGAACTTATTCGAGGCTTCACAGCTGGCGAAGAAAGGACCGATCACGACACTGGAGCAGATGCAGGAAGCGGCTGCTATTATCCACGAGCGTGGTGCTAAGCATGTGCTGATCAAGGACCGTGGCAAAATTCGCGCAGGTAAAGCGATGGATCTGCTGTATGACGGAATCACTTTTGACTGGTTTGAAGCGGATGTTGTACAAACCAACTTTACCCACGGTGCAGGCTGTACCACTTCGGCTGCGGTAACGGCTGGTTTGGCACAAGGGCTGACTGTAC (double strand) [pepF upstream fragment]
